Source: patent US20040229274A1 (Johns Hopkins, published 2004)

Key:
[1] = biological target: truncated mGluR5 (C-terminal 4 amino acids deleted) expressed in HEK-293 cells (UniProt P31424); assay: bead-linked GST-Homer pull-down from HEK-293 cell extracts, immunoblot
[2] = biological target: mGluR2 transiently expressed in HEK-293 cells (UniProt P31421 19-872); assay: bead-linked GST-Homer pull-down from extracts of transfected HEK-293 cells, immunoblot
Description: (§1) To measure the binding interaction, mGluR5 and mGluR1a were expressed in HEK-293 cells. Cell extracts were mixed with bead-linked GST-Homer and were then eluted with SDS loading buffer. When the C-terminal 4 amino acids of mGluR5 were deleted, binding of the mGluR5 to Homer was reduced by greater than 70% (FIG. 10D, lanes 3 and 4). […] Neither mGluR2 nor mGluR4 bind Homer protein (FIGS. 10B, 10C).
(§2) For experiments examining specificity of Homer binding to metabotropic glutamate receptors, HEK-293 cells were transiently transfected with mGluR1a, mGluR2, mGluR4 or mGluR5 expression constructs, scraped into PBS+1% Triton X100, sonicated 2×10 seconds, centrifuged at 15,000 g for 10 minutes at 4° C., and pre-cleared. Lysate from half of a 10 cm plate was incubated with 50 μl of beads linked to 250 ng of protein and washed as above. Samples were analyzed by western blot analysis using the appropriate polyclonal mGluR antibody. Deletion constructs of Homer were prepared by PCR and cloned as fusion constructs with GST in pGEX (Pharmacia, Piscataway, N.J.).

[3] = biological target: mGluR4 transiently expressed in HEK-293 cells (UniProt P31423 33-912); assay: as above
Description: as §1, §2

[4] = biological target: T1, C-terminal 195 amino acids of mGluR5 encoded by an interacting cDNA of the rat hippocampus library in pPC86 (rat, UniProt P31424 1009-1203); assay: yeast GAL4 two-hybrid screen, selection without leucine, tryptophan and histidine, confirmed by β-galactosidase assay
T1 construct: not shown: GAL4 domain supplied by vector pPC86
Description: In experiments carried out in support of the present invention and described in Example 5 herein, the yeast GAL4 two-hybrid system was used to identify binding partners of the rat Homer protein in a rat brain cDNA library (Chevray and Nathans, 1992). A PCR product of the full-length Homer ORF with flanking SmaI sites was subcloned into the yeast expression vector pPC97. A random primed cDNA library was prepared from seizure stimulated adult rat hippocampus and cloned into the yeast expression vector pPC86. The library contains 2×10⁶ independent cDNAs. A total of 1.5×10⁶ clones were screened. Interacting proteins were identified by selection on plates lacking leucine, tryptophan, and histidine, restreaked and confirmed using a β-galactosidase assay.
The full-length Homer ORF with flanking SmaI sites was subdloned into the yeast expression vector pPC97. A random primed cDNA library was prepared from seizure stimulated adult rat hippocampus and cloned into the yeast expression vector pPC86. The library contains 6×10⁶ independent cDNAs and a total of 1.5×10⁶ were screened. Interacting proteins were identified by colony selection on plates lacking leucine, tryptophan, and histidine and confirmed using a β-galactosidase assay (Ausubel, et al., 1992). […]

[5] = biological target: T2, myc-tagged mGluR5 C-terminus (195 aa) expressed in HEK-293 cells (UniProt P31424 1009-1203); assay: GST-Homer deletion constructs, pull-down of myc-tagged mGluR5 C-terminus, immunoblot for myc
T2 construct: it is put first here; not shown: myc tag
T2 sequence (P31424 1009-1203 limits assumed): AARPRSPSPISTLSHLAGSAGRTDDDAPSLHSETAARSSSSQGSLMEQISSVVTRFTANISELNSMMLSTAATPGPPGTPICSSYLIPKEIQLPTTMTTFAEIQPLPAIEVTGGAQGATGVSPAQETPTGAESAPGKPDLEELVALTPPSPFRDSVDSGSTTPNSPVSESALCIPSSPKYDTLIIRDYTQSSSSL

Chain of mGluR2 transiently expressed in HEK-293 cells (P31421 19-872 limits assumed): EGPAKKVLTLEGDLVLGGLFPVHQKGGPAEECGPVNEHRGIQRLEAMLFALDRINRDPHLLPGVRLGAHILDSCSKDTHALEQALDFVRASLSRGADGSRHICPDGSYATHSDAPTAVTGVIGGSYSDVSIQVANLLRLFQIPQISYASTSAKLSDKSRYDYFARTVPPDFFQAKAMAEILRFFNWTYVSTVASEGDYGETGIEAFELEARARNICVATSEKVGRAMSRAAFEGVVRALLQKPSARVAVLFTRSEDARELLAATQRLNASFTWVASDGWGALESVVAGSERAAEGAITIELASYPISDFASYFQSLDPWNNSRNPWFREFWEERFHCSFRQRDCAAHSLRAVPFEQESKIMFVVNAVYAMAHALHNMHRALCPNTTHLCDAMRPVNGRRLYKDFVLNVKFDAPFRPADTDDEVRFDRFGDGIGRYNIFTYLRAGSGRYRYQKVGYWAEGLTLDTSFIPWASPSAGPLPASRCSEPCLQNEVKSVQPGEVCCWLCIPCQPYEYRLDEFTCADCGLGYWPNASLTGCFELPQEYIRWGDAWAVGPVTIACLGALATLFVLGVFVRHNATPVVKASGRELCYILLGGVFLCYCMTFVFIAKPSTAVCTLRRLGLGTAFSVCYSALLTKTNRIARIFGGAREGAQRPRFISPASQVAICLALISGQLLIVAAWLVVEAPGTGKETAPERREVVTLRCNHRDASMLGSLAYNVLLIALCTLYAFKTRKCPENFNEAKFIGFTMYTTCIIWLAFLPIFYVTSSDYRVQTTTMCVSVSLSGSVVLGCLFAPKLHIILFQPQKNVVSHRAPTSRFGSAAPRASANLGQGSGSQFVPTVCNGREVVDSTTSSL
T1 sequence (P31424 1009-1203): as the sequence (P31424 1009-1203 limits assumed) above
Chain of mGluR4 transiently expressed in HEK-293 cells (P31423 33-912 limits assumed): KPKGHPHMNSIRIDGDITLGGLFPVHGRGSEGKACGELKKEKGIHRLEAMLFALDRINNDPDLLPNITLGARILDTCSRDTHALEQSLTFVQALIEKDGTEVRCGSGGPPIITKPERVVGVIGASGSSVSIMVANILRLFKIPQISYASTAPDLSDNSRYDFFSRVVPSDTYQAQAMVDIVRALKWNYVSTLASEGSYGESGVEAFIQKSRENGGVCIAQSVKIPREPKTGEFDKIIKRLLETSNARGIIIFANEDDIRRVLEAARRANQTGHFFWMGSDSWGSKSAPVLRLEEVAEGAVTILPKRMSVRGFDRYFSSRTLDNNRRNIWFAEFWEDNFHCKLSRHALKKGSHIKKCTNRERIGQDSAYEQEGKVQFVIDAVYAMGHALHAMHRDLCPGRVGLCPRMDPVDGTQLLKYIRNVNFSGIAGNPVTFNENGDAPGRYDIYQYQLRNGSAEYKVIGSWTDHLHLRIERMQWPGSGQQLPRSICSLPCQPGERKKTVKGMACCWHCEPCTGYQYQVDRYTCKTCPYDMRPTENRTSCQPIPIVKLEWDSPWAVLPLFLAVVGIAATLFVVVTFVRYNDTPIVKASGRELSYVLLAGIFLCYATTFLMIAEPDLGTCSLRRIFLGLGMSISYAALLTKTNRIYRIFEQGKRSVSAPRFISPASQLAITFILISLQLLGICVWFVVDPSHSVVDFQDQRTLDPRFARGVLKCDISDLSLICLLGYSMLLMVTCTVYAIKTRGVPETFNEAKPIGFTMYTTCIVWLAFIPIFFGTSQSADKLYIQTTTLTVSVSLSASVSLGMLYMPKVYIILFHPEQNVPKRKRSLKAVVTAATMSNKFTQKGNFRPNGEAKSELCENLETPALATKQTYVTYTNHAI

B1: GST-Homer fusion protein (full length rat Homer, 1-186, fused to glutathione-S-transferase) (other)
chain: MGEQPIFSTRAHVFQIDPNTKKNWVPTSKHAVTVSYFYDSTRNVYRIISLDGSKAIINSTITPNMTFTKTSQKFGQWADSRANTVYGLGFSSEHHLSKFAEKFQEFKEAARLAKEKSQEKMELTSTPSQESAGGDLQSPLTPESINGTDDERTPDVTQNSEPRAEPAQNALPFSHRYTFNSAIMIK
notes: Bacterially expressed from pGEX; GST is put first as usual for pGEX; also called Homer GST fusion protein; Homer-GST fusion protein; not shown: glutathione-S-transferase (GST) encoded by the bacterial vector pGEX (Pharmacia)
For B1, the reduction of binding against full length mGluR5 [1] was over 70%, the binding result [2] was “no binding” and the binding result [3] was “no binding”.

B2: full-length Homer ORF in yeast expression vector pPC97 (GAL4 two-hybrid fusion) (other)
chain: MGEQPIFSTRAHVFQIDPNTKKNWVPTSKHAVTVSYFYDSTRNVYRIISLDGSKAIINSTITPNMTFTKTSQKFGQWADSRANTVYGLGFSSEHHLSKFAEKFQEFKEAARLAKEKSQEKMELTSTPSQESAGGDLQSPLTPESINGTDDERTPDVTQNSEPRAEPAQNALPFSHRYTFNSAIMIK
notes: also called Homer (two-hybrid bait); not shown: GAL4 domain supplied by vector pPC97
B2: binds [4].

B3: GST-Homer deletion construct, Homer fragment 109-186 (N-terminal 108 amino acids deleted) (other, not shown: a dimerising Fc or GST; large carriers; small tags and cut ends)
chain: AARLAKEKSQEKMELTSTPSQESAGGDLQSPLTPESINGTDDERTPDVTQNSEPRAEPAQNALPFSHRYTFNSAIMIK
notes: GST put first as usual for pGEX
B3: no binding [5].
